Source: the supplement of paper PMC12783771
± gives the standard deviation of the averaged measurements.

B1: library; a variant is named by its letters at X, in order (parent)
chain: MNIQIGELAKRTACPVVTIRFYEQEGLLPPPGRSRGNFRLYGEEHVERLQFIRHCRSLDMPLSXVRTLLSYRKRPDQDCGEVXMLLDEHXRQVESRIGALLELXHXLVELREACSGARPAQSCGILQGLSDCVCDTRGTTAHXSD

Assays:
[1] = variants of: B1; experiment: sfGFP reporter fluorescence (15 h) (µM FITC); higher = higher leak; conditions: library round: Round 3b; ligand: none
Experimental: (§1)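 Cell-free biosensing: 1 µL Echo-assembled CFE reactions with linear PbrR variant templates (5 nM) and pPbrR-sfGFP reporter, with 1 µM Pb, 30 µM Zn or no ligand; endpoint sfGFP fluorescence after 15 h at 30 °C calibrated as µM FITC. Round 3b rational combinatorial PbrR mutants; 3 biological replicates.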

[2] = variants of: B1; experiment: sfGFP reporter fluorescence (15 h) (µM FITC); higher = stronger transcriptional activation; conditions: library round: Round 3b
Experimental: as §1

| Variant | sfGFP reporter fluorescence [1] | sfGFP reporter fluorescence ([2]; ligand: 1 µM Pb) | sfGFP reporter fluorescence ([2]; ligand: 30 µM Zn) |
| --- | --- | --- | --- |
| KNIVET | 0.112 ± 0.0075 | 0.514 ± 0.055 | 1.2 ± 0.06 |
| KNIVER | 0.115 ± 0.006 | 0.585 ± 0.046 | 1.4 ± 0.2 |
| KIIVET | 0.0535 ± 0.0022 | 0.346 ± 0.015 | 0.0557 ± 0.0014 |
| KIIVEP | 0.0554 ± 0.0036 | 0.372 ± 0.031 | 0.0556 ± 0.0028 |
| KIAKHR | 0.072 ± 0.002 | 1.07 ± 0.074 | 0.135 ± 0.017 |
| KIAKHT | 0.0693 ± 0.0034 | 0.93 ± 0.043 | 0.152 ± 0.011 |
| DIIVET | 0.0433 ± 0.0015 | 0.0933 ± 0.0025 | 0.0469 ± 0.0019 |
| DIIVER | 0.0467 ± 0.0027 | 0.0917 ± 0.0042 | 0.047 ± 0.0038 |
| KNITER | 0.0631 ± 0.0055 | 0.311 ± 0.029 | 0.926 ± 0.12 |
| KNITET | 0.0629 ± 0.0071 | 0.318 ± 0.015 | 0.944 ± 0.15 |
| KIATAT | 0.0691 ± 0.0019 | 1.29 ± 0.062 | 0.0697 ± 0.0016 |
| KIATAR | 0.069 ± 0.0014 | 1.49 ± 0.15 | 0.0681 ± 0.0007 |
| KIATAP | 0.0703 ± 0.0043 | 1.26 ± 0.096 | 0.0679 ± 0.006 |
| DIAVAR | 0.0429 ± 0.0036 | 0.102 ± 0.0042 | 0.047 ± 0.0015 |
| DIAVAP | 0.0451 ± 0.0067 | 0.0922 ± 0.0043 | 0.0441 ± 0.0071 |
| DIAVAT | 0.0441 ± 0.0047 | 0.096 ± 0.0083 | 0.0457 ± 0.0025 |
| DIATER | 0.0429 ± 0.0012 | 0.0627 ± 0.0026 | 0.0413 ± 0.00067 |
| DIATET | 0.0419 ± 0.0022 | 0.0628 ± 0.00089 | 0.0452 ± 0.0012 |
| DIATEP | 0.046 ± 0.0012 | 0.0616 ± 0.0042 | 0.0456 ± 0.0029 |
| KIAVET | 0.0672 ± 0.0059 | 1.21 ± 0.013 | 0.0607 ± 0.0027 |
| KIAVEP | 0.0654 ± 0.0022 | 0.997 ± 0.055 | 0.0578 ± 0.0022 |
| KIAVER | 0.0626 ± 0.0036 | 0.946 ± 0.087 | 0.0548 ± 0.002 |

| Variant | sfGFP reporter fluorescence [1] | sfGFP reporter fluorescence ([2]; ligand: 1 µM Pb) | sfGFP reporter fluorescence ([2]; ligand: 30 µM Zn) |
| --- | --- | --- | --- |
| DIIVAT | 0.0468 ± 0.0037 | 0.131 ± 0.0097 | 0.0469 ± 0.005 |
| DIAVET | 0.0432 ± 0.0019 | 0.07 ± 0.0044 | 0.0437 ± 0.002 |
| DIAVER | 0.0436 ± 0.004 | 0.0866 ± 0.0039 | 0.0484 ± 0.0041 |
| DIAVEP | 0.0409 ± 0.0007 | 0.0827 ± 0.0059 | 0.04514 ± 0.00039 |
| KNITAR | 0.0701 ± 0.0068 | 0.379 ± 0.032 | 1.07 ± 0.19 |
| KNITAT | 0.0655 ± 0.0027 | 0.358 ± 0.021 | 0.972 ± 0.077 |
| KIAKAT | 0.0563 ± 0.006 | 0.675 ± 0.061 | 0.0628 ± 0.0018 |
| KIAKAR | 0.0603 ± 0.0029 | 0.794 ± 0.049 | 0.0642 ± 0.0027 |
| DIITAT | 0.0431 ± 0.0041 | 0.0634 ± 0.005 | 0.0426 ± 0.0034 |
| DIITAR | 0.0463 ± 0.0055 | 0.0691 ± 0.0046 | 0.0465 ± 0.0022 |
| KIIKET | 0.0423 ± 0.0019 | 0.128 ± 0.0066 | 0.0466 ± 0.001 |
| KIIKER | 0.0441 ± 0.0037 | 0.149 ± 0.017 | 0.0485 ± 0.0035 |
| DNATAT | 0.0419 ± 0.0058 | 0.0459 ± 0.0022 | 0.059 ± 0.0073 |
| DNATAR | 0.0439 ± 0.0034 | 0.0477 ± 0.0023 | 0.0627 ± 0.0048 |
| KIAVAR | 0.0586 ± 0.0045 | 1.08 ± 0.06 | 0.0523 ± 0.0046 |
| KIAVAT | 0.0607 ± 0.0022 | 1.25 ± 0.024 | 0.0576 ± 0.0032 |
| KIAVAP | 0.0556 ± 0.001 | 0.772 ± 0.15 | 0.0487 ± 0.0065 |
| DNATER | 0.0446 ± 0.0017 | 0.0458 ± 0.0017 | 0.0522 ± 0.0022 |
| DNATET | 0.0419 ± 0.00051 | 0.0463 ± 0.0026 | 0.0623 ± 0.0031 |
| KIITHT | 0.0492 ± 0.0029 | 0.471 ± 0.031 | 0.0728 ± 0.0057 |
| KIITHR | 0.0506 ± 0.0028 | 0.485 ± 0.067 | 0.0734 ± 0.0022 |
| KNATEP | 0.0501 ± 0.0039 | 0.279 ± 0.052 | 0.261 ± 0.015 |

| Variant | sfGFP reporter fluorescence [1] | sfGFP reporter fluorescence ([2]; ligand: 1 µM Pb) | sfGFP reporter fluorescence ([2]; ligand: 30 µM Zn) |
| --- | --- | --- | --- |
| KNATER | 0.0529 ± 0.0011 | 0.343 ± 0.014 | 0.336 ± 0.035 |
| KNATET | 0.055 ± 0.0007 | 0.324 ± 0.017 | 0.34 ± 0.031 |
| KNATAP | 0.052 ± 0.0055 | 0.226 ± 0.015 | 0.311 ± 0.038 |
| KNATAR | 0.0517 ± 0.005 | 0.302 ± 0.012 | 0.406 ± 0.066 |
| KNATAT | 0.0532 ± 0.0029 | 0.305 ± 0.021 | 0.514 ± 0.057 |
| KIIVHT | 0.053 ± 0.0034 | 0.673 ± 0.034 | 0.101 ± 0.015 |
| DIAKET | 0.0419 ± 0.00078 | 0.0472 ± 0.0015 | 0.0466 ± 0.0026 |
| DIAKER | 0.0433 ± 0.0047 | 0.0512 ± 0.0021 | 0.0452 ± 0.0035 |
| DIITET | 0.0436 ± 0.0034 | 0.0535 ± 0.002 | 0.047 ± 0.0035 |
| DIITER | 0.0474 ± 0.0038 | 0.0576 ± 0.0022 | 0.0446 ± 0.0022 |
| KIIVAT | 0.0506 ± 0.0022 | 0.424 ± 0.013 | 0.0534 ± 0.0041 |
| DNAVAR | 0.0458 ± 0.0027 | 0.0485 ± 0.0025 | 0.0579 ± 0.0046 |
| DNAVAT | 0.0419 ± 0.0015 | 0.0454 ± 0.0015 | 0.0637 ± 0.0046 |
| KIITAP | 0.0473 ± 0.0044 | 0.308 ± 0.022 | 0.051 ± 0.005 |
| KIITAT | 0.0466 ± 0.0011 | 0.39 ± 0.032 | 0.05466 ± 0.00019 |
| KNIVAT | 0.092 ± 0.0023 | 0.52 ± 0.048 | 1.42 ± 0.2 |
| KIIKAT | 0.0413 ± 0.0042 | 0.17 ± 0.027 | 0.0483 ± 0.0033 |
| KIITER | 0.0454 ± 0.0026 | 0.266 ± 0.0032 | 0.0497 ± 0.0018 |
| KIITEP | 0.0456 ± 0.0027 | 0.301 ± 0.011 | 0.0508 ± 0.0019 |
| KIITET | 0.0468 ± 0.0019 | 0.265 ± 0.01 | 0.0513 ± 0.0034 |
| DIAKAR | 0.0442 ± 0.0031 | 0.0673 ± 0.0063 | 0.045 ± 0.0015 |
| DIAKAT | 0.0356 ± 0.0029 | 0.0683 ± 0.0046 | 0.0346 |

| Variant | sfGFP reporter fluorescence [1] | sfGFP reporter fluorescence ([2]; ligand: 1 µM Pb) | sfGFP reporter fluorescence ([2]; ligand: 30 µM Zn) |
| --- | --- | --- | --- |
| KNAVAT | 0.045 ± 0.0035 | 0.155 ± 0.0086 | 0.237 ± 0.018 |
| KNAVAP | 0.0482 ± 0.0035 | 0.142 ± 0.0073 | 0.214 ± 0.025 |
| KNAVAR | 0.0498 ± 0.001 | 0.195 ± 0.018 | 0.309 ± 0.028 |
| KNAKAT | 0.0671 ± 0.0058 | 0.353 ± 0.02 | 0.795 ± 0.18 |
| KNAKAR | 0.0687 ± 0.0037 | 0.394 ± 0.045 | 0.754 ± 0.11 |
| KIAVHR | 0.0703 ± 0.001 | 1.42 ± 0.17 | 0.0998 ± 0.0092 |
| KIAVHT | 0.0616 ± 0.0046 | 0.924 ± 0.066 | 0.0797 ± 0.0069 |
| KIAVHP | 0.0656 ± 0.0055 | 1.12 ± 0.13 | 0.0894 ± 0.011 |
| KIATHP | 0.07594 ± 0.00067 | 1.34 ± 0.049 | 0.0972 ± 0.014 |
| KIATHR | 0.0655 ± 0.0015 | 1.19 ± 0.2 | 0.0963 ± 0.013 |
| KIATHT | 0.0743 ± 0.0012 | 1.3 ± 0.031 | 0.112 ± 0.0078 |
| KNAKET | 0.0595 ± 0.0029 | 0.248 ± 0.0068 | 0.569 ± 0.068 |
| KNAKER | 0.0626 ± 0.0049 | 0.296 ± 0.036 | 0.621 ± 0.066 |
| KNAVHT | 0.0573 ± 0.0042 | 0.322 ± 0.0077 | 0.602 ± 0.057 |
| KNAVHR | 0.0557 ± 0.0039 | 0.37 ± 0.021 | 0.644 ± 0.054 |
| KIAKET | 0.0531 ± 0.0032 | 0.4674 ± 0.0044 | 0.057 ± 0.0063 |
| KIAKEP | 0.052 ± 0.0034 | 0.387 ± 0.02 | 0.051 ± 0.0007 |
| KIAKER | 0.0554 ± 0.0012 | 0.614 ± 0.024 | 0.0592 ± 0.0041 |
| DIATAT | 0.0409 ± 0.0016 | 0.112 ± 0.0062 | 0.0458 ± 0.00085 |
| DIATAP | 0.0413 ± 0.0051 | 0.087 ± 0.01 | 0.0433 ± 0.0057 |
| DIATAR | 0.0427 ± 0.0029 | 0.0781 ± 0.014 | 0.0423 ± 0.0034 |
| KIATEP | 0.0672 ± 0.0044 | 1 ± 0.062 | 0.0643 ± 0.0007 |
